# Test results reported in a protein production outcome set (Wang et al. 2014).
# Assay: label from the status in PepcDB records
# 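Further: failed if final PepcDB status was selected cloned or expressed and not failed if soluble or beyond.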
row,Sequence,protein production
1,MNRNKIAALIFAVSTVCVVSAHSENAYATEHKNSNQLEENNQTRSVKKGQVINVSTNLRIRKSPNTSSDVIGYLTNGEIFNIDGKEGSWYKINANGKVGYIHGDYVKEVTGNSNSSSNNSGSNSNLDTSLAGKKGTVVNVSTSLRVRQSPSTSSSVVGSLRGGQTFEIKGKSGSWYYINANGLTGYIHGDYVQVGENSSNNGGQSSGNNGQSSENNSGMDTSLAGKTGKVVNVSTSLRIRQSPSTSSSVVGSLSAGQTFKINGKNGAWYNIDAQGTKGHVHGDYVQVLSGNESSNSGSNNNQSGSQNNNLDESYNGKAGKVVNVTTNLRLRSQPSTSSSVLAYLLPNERFTLQGKTSSGWFKVNYNGKIGYLHEDYVKIVSSDEGANGNTGGSTGGGQVNQSKYEQVLSIMKSQIGSPYIYGGAGETLTSSLLSSLRRTFPDHAARGFYDIPSNYLNGNYRAFDCSGLMQWSFRQAGISLGRTTWDQINNGYEVSPSNAKPGDLLFFSNLGHVGMYIGNGQWIEAPNKGKFVSITSVPWSKIGRARRVL,failed
2,MYKLVLIRHGESTWNKENRFTGWVDVDLTEQGNREARQAGQLLKEAGYTFDIAYTSVLKRAIRTLWHVQDQMDLMYVPVVHSWRLNERHYGALSGLNKAETAAKYGDEQVLVWRRSYDTPPPALEPGDERAPYADPRYAKVPREQLPLTECLKDTVARVLPLWNESIAPAVKAGKQVLIAAHGNSLRALIKYLDGISDADIVGLNIPNGVPLVYELDESLTPIRHYYLGDQEAIAKAQAAVAQQGKSAA,not failed
3,MPTLLNIQEFNKLNMNTILHITKRQQWEQAKNVGSYHADSLDTEGFIHSSKSIQILKVANRFFHHQTELVLLFIDSDQVKPEIRYEAADGDLFPHIYGELNLDAVYQVIDFEPGEDGLFEVPPEVVSLG,failed
4,MLLYIHVPFCRRKCRYCAFHSLPLIGEGGTSPAPEALQTPHADTAITAGPTAASTALAGVAPVTPSAQAISGQDGHTSTKGHGVPPESPPGPTANAAGMSGGIAGIVDRAGGAMRSCTPAEALPAYVETLFSELALWGDRLGNATVETIFFGGGTPSLLPPHVVAAILDRVHRTFSVAPGAEISLEANPESLSNRQQARGLYDAGVNRLSLGVQALDDALLHLMGRPHRARDAIRAFNAARDAGFTNISLDFIWGLPGQRLRQWLDQLREVVRLRPEHLSCYGLTLEEGTPLTADVESGSIALPVEREQAAMFMQGAERLEEAGYLQYEISNFARMGFQCHHNLGYWEGRDYLGLGPSATSTIDGLRWTNPYDHGAWHESVRTGRIGADAERLDLTVRVLELVMLRLRTTRGLRVKAYRELTGRDFLRDHKPLVHLLHRNGLVRIRDGYLRLTRNGMLVSNSILERFFERSETLLTLESTEKTHETRMAGPISGDTP,failed
5,SGGTLRIYADSLKPNIPYKTILLSTTDTADFAVAESLEKYGLEKENPKDYCIARVMLPPGAQHSDERGAKEIILDDDECPLQIFREWPSDKGILVFQLKRRPP,not failed
6,MDRLPILKLGDCLLVTIQVELHDRLALTLQDDLTTMIANTGARGVLIDISALDIVDSFIARVLGNIAAMSRVLGAETMVVGMQPAVAITLVELGVTWQHMHTALSVERGLERLKVLIAERHTLRGHSPRGKRGGGVDGSRH,failed
7,MTLLRDHDLARAFDHASHTYDGLTALNPGYRTGLLRSARRLALPADGAGLHLLDLGCGTGASTRALLRAAPRARITAVDASAGMLRRALVKPWPARVRFLHLTAEEFATTREDEGPFDAVFAAYLFRNVTDPDAVLRAVRQLLRPGGRFAAHEYSLSGSPGHRALWSAVCRGVVIPAGTLTGDRTLYRHLRRSVVAFDTAPEFAARLTRAGLTSVRVAPVAGWQTGIVHTFLARNGGPTTTEERVL,failed
8,MKRLSITVRLTLLFILLLSVAGAGIVWTLYNGLASELKWRDDTTLINRTAQIKQLLIDGVNPDTLPVYFNRMMDVSQDILIIHGDSINKIVNRTNVSDGMLNNIPASETISAAGIYRSIINDTEIDALRINIDEVSPSLTVTVAKLASARHNMLEQYKINSIIICIVAIVLCSVLSPLLIRTGLREIKKLSGVTEALNYNDSREPVEVSALPRELKPLGQALNKMHHALVKDFERLSQFADDLAHELRTPINALLGQNQVTLSQTRSIAEYQKTIAGNIEELENISRLTENILFLARADKNNVLVKLDSLSLNKEVENLLDYLEYLSDEKEICFKVECNQQIFADKILLQRMLSNLIVNAIRYSPEKSRIHITSFLDTNSYLNIDIASPGTKINEPEKLFRRFWRGDNSRHSVGQGLGLSLVKAIAELHGGSATYHYLNKHNVFRITLPQRN,failed
9,ETNEITIGITVTTTGPAAALGIPERNALEFVAKEIGGHPLKVIVLDDGGDPTAATTNARRFVTESKADVIMGSSVTPPTVAVSNVANEAQVPHIALAPLPITPERAKWSVAMPQPIPIMGKVLYEHMKKNNIKTVGYIGYSDSYGDLWFNDLKKQGEAMGLKIVAEERFARPDTSVAGQVLKLVAANPDAILVGASGTAAALPQTSLRERGYKGLIYQTHGAASMDFIRIAGKSAEGVLMASGPVMDPEGQDDSALTKKPGLELNTAYEAKYGPNSRSQFAAHSFDAFKVLERVVPVALKTAKPGTQEFREAIRKALVSEKDIAASQGVYSFTETDRYGLDDRSRILLTVKDGKYVMVK,not failed
10,MQTPKSRPGSLELPQKKSPLPAPKVVRRLKPSGAESDPKTKTISKTQIPKVVADRRSARIPLNEKKRTGRIPELESTISQLQEELKKAKEELNRSEALKREAQEEAEDAKHQLMDINASEDSRIEELRKLSQERDKTWQSELEAMQRQHGMDSTALSSAINEVQKLKSKLFESESELEQSKYEVRSLEKLVRQLEEERVNSRDSSSSMEVEELKEAMNLSRQEITQLKSAVEAAETRYQEEYIQSTLQIRSAYEQTEAVKSRYSQREAELTEELNRTKDEIEGLRKELMEKVKEDESTGDLKKLESDLMEVRGSLMDKEMELQILRSAMEKKVETANTEAMEAELKRVKIQCEQWRKAAETAASILNNDEERTDSIETSKMLKKFGVLLKKNHK,failed
11,MTEYVHGYSEREALRLSEQAETLEKLLHHDTVYPPGAKVLEAGCGIGAQTVILAKNNPDAEITSIDISPESLEKARENTEKNGIKNVKFLQANIFSLPFEDSSFDHIFVCFVLEHLQSPEEALKSLKKVLKPGGTITVIEGDHGSCYFHPEGKKAIEAWNCLIRVQAYMKGNSLVGRQIYPLLQESGFEKIRVEPRMVYIDSSKPELVDGFILKTIIPMVEGVKEQSLKMQIIKEEEWEKGIEELHKTAEHGGTFCYTFFKGWGTK,failed
12,MANVDRRQMLLLSGLGATAAVLPVPRAAAVPNQTAASYVFADEFDGPAGSAPSAAKWTIAKARETIQDPTYWEQPGRIGQYRNDRRNVFLDGKSNLVIRAAKDGDTYYSAKLASVWEGGAGHTWEARIKFNCLTAGAWPAFWLGNTGEGELDIIEWYGNGSWPSATTVHAKSNGGEWKTHNIAVDNGWHRWRTQWDAEGARFWLDYTDGAQPYFEVAASSLPDWPFDQPGYTMFVVLNLAVAGSGGGDPSGGTYPADMLVDWVRVW,not failed
13,MSLGVLRYTLRARGHPNVTAGHRTTFEVTVDPEIGETADCIIGVSSSDSISTLPDEMKRAIARESSLVRVILRTENGYDEIRGYGHPELTLDHPTDIVCRKSDYICSRTLMIRADKAAFDLDENLVRDLRKGRELKVEIIVEYEGHHHHHH,not failed
14,MNGGKTAVIVLGWNGAADTLACLASLAKVRQPAFTVILADNGSTDGTVGLVRQAFPEVEILELGRNLGFAAGNNAAFRSLRGRGFDRVVFLNNDTVVDPGFLQPLLDELQKPWVGIAAPKILYMDDPGRIWYAGGVLESATGLIEHTGIRQPDGPRFDTPEPVWYATGCCLAMRCRVFEEVGGFDERFRMYGEDVDLSMKVRERGLIVMYQPASRIWHRVSASSGGEMNLGKQLRKSGAAMMLFAKHGMIGGLVLYPLLLPFRALLGLLRFQFFRWTSSQEREEA,failed
15,MRYRNTALFVLLAAVWGSAFVAIKAGVGSPDAPGYFFDAPVLFAAVRYDIAAVLMFAYVAWATDRWRPRGRTEWLAVAVGSAFIIAGYHALLFLGQRGTTSAAAAVIVSLSPVLTTAFARALLADERLSVLGLAGMGVGFLGVVVLSQPTPADIAASRFEALVFAAALCFALGSVLTRRLDTDLPIETMEAWSMAGGALLMHALSLALGETVSGAPPTDALVALGYLAVVASAAGFLVYFDLLGRLGAIEINLVSYVVPVFAALVGVLLLGERVDTPTAAGFLLVFAGFVIIKRRAIRAEIADSYWP,failed
16,MNEYQIKFKEDCYYAENNAGKVIGELLYSKIKQGKVISINQVRVDPLFRNRGIAGKLLKKAVDDAVKNGQLIKAVCSFSKKAFLQNKNYQKYEYKEN,failed
17,MRDTLPEWYKTKKNICDQMTEEINLWGYDMIETPTLEYYETVGVVSAILDQQLFKLLDQQGNTLVLRPDMTAPIARLVASSLKDRAYPLRLAYQSNVYRAQQNEGGKPAEFEQLGVELIGDGTASADGEVIALMIAALKRAGLSEFKVAIGHVGYVNALLMDVVGNEQRADRLRRFLYEKNYVGYREHVKSLNLSTIDKSRLMNLLSLRGGRAAIEEARGLIQTEKGKTALAEMTKLYEVLESYGASEYVKFDLTLVLHMSYYTGVVFEGYGNRLGVPLCSGGRYDELLSKFHRPAQATGFGVRIDLLVEALNGEIISN,not failed
18,MPMKSWIKTLLITLLAAALCLLFARVVLPPLLVQLIPPSWEGGPWFWVNLLLAGFLAGLVVAPLLRTRRYYPVPLLLLLSVLVVVGNWAQNRCNDAQLQAIEQLERRSASHSNLGISNEEPAPSAPVDVSATPGVWAHEQGDGYGYSCNRPGETQGFLMPQLMSFGINVLGLLLALLIGPGRRRAR,failed
19,MFAYTLTTLTLCCTSILITSYISKRKGTLMEYMVFIMSFSMSIGLSIGFYLGILFKGELLYSTLLAILISGFIGFLIGLRFHLYTALEGMFSGLMASMMGAMITEMLNAQQAHSILFISLLLTITITMSCVIQLLSENFSTFIQQRFLLLLSISVVIIVAVFTTFPDHTPAPSPGHNQHIH,failed
20,MKTTFLSLCFLLFFPLTGYSWQTAVTHISFHDLQRHRQLDSIIYYPTADQGETQLLSDTAVFRGISVLPNAPLAEGKFPLVVLSHGSGGNNTSLAWLADKLVQQGMVVVAANHPGSTTGDSIPAQSAQLWLQTEDISFIISTLLSDPRWKSALDEQAIGVIGHSKGGYSAIATLGATLSRPHFIASCQQQPEQPNCQFYTHAGVTLDQLSAEKFEGNYADKRLRFAIALDPGMVPFYQKSSLLHLSAPLLLINADYFISPNESLNLGGATWVKQLNQPGITAVTLTKSGHFDFLPLCKPAAGAILAEEGEAFICATPAVEREKLHQQTVQQILTYLQ,failed
21,MKRLLERSHALLTAPVGATPRVLALVAALLVVPTYVAPLWNLTMFAPQYGDGLRLDIYSYKLEGGNHGQDLKEINLLNHYIGMHDLAEEDFREFKWMPFVMGGLALVFLRAAVMGRVLDLLDSLVVFTWFGLFSLWSFGYKLYSYGHDLAPGAPVKVPPFMPPMIGSAQLANFEVYSYPGLGSYALFAVGLALAVALALGVRATLRRSAAAPLPRGGP,failed
22,MHSEHGRQNVKVELKGVHRVRRKLASGETAVYHYAWRGGPRIDAAPGSAEFVAAYNAAHAARDRPVHHDGTLQALITAYQKTPAFTDLAEATRKGYIRHIRQIEADFGDMPVQALADPRVRGEFLDWRDRLAQKSKRSADYAFSVLARILSWAHDRRKIPVNPCEKPGRLYTGSRADSIWTEAQIAAFLAVAPRPVRLPFLLAIWTGQRQADILQLTWTAYDGQAIRLRQSKTGRHMLIPVAQPLREAMEEAKARRRTLTICETSRGQPWTSDGFKTSFGKAQASAGIEGVTFHDLRGTAVTFLALAGCSVPEIAALTGHSLKDAEGILSKHYLGRDRRLGESAVAKLEKHGVGTPTVKRAVKRRGPEGGDSV,failed
